Entries after “also recorded” stand apart in the source; their conditions may differ. One block for each molecule: values may come before it.
Assays:
[1] = Intravenous iron administration (iron loading) in a hemodialysis patient, serial serum profiling
Source text: Serum samples were obtained from 40 hemodialysis patients before and after hemodialysis. All patients were receiving hemodialysis treatment three times a week. In addition, serum samples were collected from patients with acute pyelonephritis (two patients), pneumonia (two patients), and sepsis (two patients), as well as from 16 healthy volunteers with normal renal function. Serial samples of serum and urine obtained from two patients with acute pyelonephritis and two hemodialysis patients who had received intravenous iron administration for iron deficiency were also analyzed. Red blood cell (RBC) count, hemoglobin (Hb), hematocrit (Ht), plasma iron, and ferritin were evaluated for the clinical assessment of iron status and anemia. Serum samples were separated by centrifugation (3,000 rpm) and stored at −80° C. until assayed. Informed consent for the analysis of the protein profiling of serum and/or urine was obtained from all the participants.
For preliminary trials, multiple types of protein chips were used with various surface characteristics, which included weak cation exchange, strong anion exchange, and immobilized metal affinity capture for protein molecules that bind divalent cationic copper. The present inventor eventually chose the mobilized metal affinity capture ProteinChip® array (IMAC 30-Cu) for the entire study because of its reproducibility in detecting protein species from serum and urine. SELDI analysis was performed according to the manufacturer's manual, with some modifications. In brief, serum and urine samples were diluted 20-fold and 10-fold, respectively, with binding buffer (phosphate buffered saline, pH 7.4). Using a bioprocessor, 40 μl of diluted samples were applied onto different arrays of an IMAC 30-Cu chip pretreated with 100 mM copper sulfate binding buffer and the chip was incubated at room temperature for 30 min with constant horizontal shaking. For confirmation of the reproducibility, each sample was applied to two separate spots on an IMAC 30-Cu chip. Unbound proteins were removed by washing three times with binding buffer for 5 min. […] Next, the arrays were analyzed using the Ciphergen ProteinChip® Reader PBS II. The proteins with CHCA were ionized and their molecular masses were determined by TOF analysis. The mass-to-charge ratio (m/z) of each of the proteins/peptides captured on the array surface was determined according to externally calibrated standards: Arg8-vasopressin (1,084.25 Da), somatostatin (1,637.9 Da), dynorphin (2,147.5 Da), bovine insulin beta-chain (3,495.94 Da), human insulin (5,807.65 Da), bovine ubiquitin (8,564.8 Da), and bovine cytochrome C (12,230.9 Da). […]

IL-6 receptor = target: T1, IL-6 receptor (Homo sapiens, UniProt P08887); assay: Tocilizumab treatment of two Castleman's disease cases, serum and urine hepcidin monitored by SELDI-TOF-MS; type: in vivo
T1 construct: before and after tocilizumab treatment in two Castleman's disease cases; from tissue; host or cells: patients with Castleman's disease (in vivo treatment)
T1 sequence (P08887 20-468): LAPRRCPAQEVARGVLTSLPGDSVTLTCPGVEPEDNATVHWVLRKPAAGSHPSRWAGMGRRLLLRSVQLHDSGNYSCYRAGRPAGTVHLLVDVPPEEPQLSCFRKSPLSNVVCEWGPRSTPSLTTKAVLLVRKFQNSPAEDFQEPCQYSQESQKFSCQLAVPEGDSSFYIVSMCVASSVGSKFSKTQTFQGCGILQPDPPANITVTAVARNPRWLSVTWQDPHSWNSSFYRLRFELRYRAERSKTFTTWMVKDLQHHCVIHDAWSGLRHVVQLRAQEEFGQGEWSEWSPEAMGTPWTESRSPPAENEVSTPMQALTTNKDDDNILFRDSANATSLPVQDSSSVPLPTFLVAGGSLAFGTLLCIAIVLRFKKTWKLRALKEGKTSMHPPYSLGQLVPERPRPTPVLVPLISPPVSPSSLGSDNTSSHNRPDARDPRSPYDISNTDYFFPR
Method: The present inventor monitored serum and urine hepcidin before and after tocilizumab treatment in two Castleman's disease cases who began treatment with tocilizumab (registered trademark: Actemra), from 7 days before treatment to 14 days after the start of the treatment. The measurement of hepcidin was performed in the manner described in Example 1.

[2] = Clearance of serum peptides by hemodialysis (SELDI-TOF-MS before and after hemodialysis); type: in vivo, human; conditions: hemodialysis patients, serum before vs after hemodialysis
Method: Serum samples were obtained from 40 hemodialysis patients before and after hemodialysis. All patients were receiving hemodialysis treatment three times a week. […] Serum samples were separated by centrifugation (3,000 rpm) and stored at −80° C. until assayed.
SELDI analysis was performed according to the manufacturer's manual, with some modifications. In brief, serum and urine samples were diluted 20-fold and 10-fold, respectively, with binding buffer (phosphate buffered saline, pH 7.4). Using a bioprocessor, 40 μl of diluted samples were applied onto different arrays of an IMAC 30-Cu chip pretreated with 100 mM copper sulfate binding buffer and the chip was incubated at room temperature for 30 min with constant horizontal shaking. For confirmation of the reproducibility, each sample was applied to two separate spots on an IMAC 30-Cu chip. Unbound proteins were removed by washing three times with binding buffer for 5 min. The arrays were rinsed twice with 400 μl of water, were air-dried, and 0.5 μl of alpha-cyano-4-hydroxy-cinnamic acid (CHCA; Ciphergen) in 50% acetonitrile and 0.5% trifluoroacetic acid was added twice onto the surface of the chip. Next, the arrays were analyzed using the Ciphergen ProteinChip® Reader PBS II. The proteins with CHCA were ionized and their molecular masses were determined by TOF analysis. The mass-to-charge ratio (m/z) of each of the proteins/peptides captured on the array surface was determined according to externally calibrated standards: Arg8-vasopressin (1,084.25 Da), somatostatin (1,637.9 Da), dynorphin (2,147.5 Da), bovine insulin beta-chain (3,495.94 Da), human insulin (5,807.65 Da), bovine ubiquitin (8,564.8 Da), and bovine cytochrome C (12,230.9 Da). The mass spectra of the samples were generated using an average of 80 laser shots at a laser intensity of 180 and a detector sensitivity of 10. Synthetic hepcidin-25 (Peptide Institute Inc, Osaka) was used as a marker of 2,789 Da. […]

[3] = case 1, day 3 after tocilizumab

Molecule: [Fe] [iron]
expression of the serum 2,192 m/z peak (hepcidin-20) ([1]; i.v. iron for eight weeks): increased
intensity of the serum peak at 2,789 m/z (hepcidin-25) ([1]; i.v. iron for eight weeks): increased gradually
serum ferritin level after iron administration ([1]; increased from 11.3 ng/ml, 40 mg iron i.v. twice a week for eight weeks, person on hemodialysis): 273 ng/mL

Molecule: hepcidin
half-life of hepcidin in serum (IL-6 receptor; inferred from the drop in hepcidin after tocilizumab): short

Molecule: hepcidin-20 (ICIFCCGCCHRSKCGMCCKT; listed as Homo sapiens) [2,192 m/z]
removal rate by hemodialysis [2]: 45±19%

Molecule: hepcidin-25 [2,789 m/z]
removal rate by hemodialysis [2]: 46±23%
removal rate by hemodialysis ([2]; listed as hepcidin-25): 46%

urine level of hepcidin-20 (IL-6 receptor; [3]): dramatically reduced
urine level of hepcidin-25 (IL-6 receptor; [3]): dramatically reduced
high CRP levels, anemia, and hypoalbuminemia (IL-6 receptor; cases 1 and 2, up to 14 days after start of treatment): alleviated
serum ferritin level (IL-6 receptor; cases 1 and 2 after tocilizumab): reduced slowly
Molecule: tocilizumab
serum hepcidin-25 level (IL-6 receptor; both Castleman's disease cases, within a single day after the first dose of tocilizumab): downregulation; also recorded: drastically reduced

— US20110053268A1, “METHOD FOR DIAGNOSIS OF ABNORMAL IRON METABOLISM USING ACTIVE HEPCIDIN AS INDICATOR” (priority 2006, published 2011)
